# Results: a protein production outcome set (Wang et al. 2014)
# Assay: label from the status in PepcDB records
row,Sequence,protein production
1,MKLVTISGPPSSGKTAVLAGVIRAMMASGLKVGALKYDCLATNDDDVFRAIGVPVQTGLSGNLCPDHYFVSNIEECLDWGIREGFDFLLSESAGLCNRCAPHIKGVLAVCVIDNLMGATTPKKIGPMLKYADIVVITKGDIVSQAEREVFAFQVRRANPRAKIMHVNGITGQGAGELASQFLLAPETTCLDGSRLRFSMPAALCSYCLGETRIGMEFQLGNVKKIKMSEEPARLEHHHHHH,not failed
2,MKLYKLLILDIDGTLRDEVYGIPESAKHAIRLCQKNHCSVVICTGRSMGTIQDDVLSLGVDGYIAGGGNYIQYHGELLYNQSFNQRLIKEVVCLLKKREVAFSIESQEKVFMNQKAKEIFETMNQLKGTNSCINKQHIQEKITYENNIEEYKSQDIHKICLWSNEKVFDEVKDILQDKMELAQRDISSQYYEIIQKDFHKGKAIKRLQERLGVTQKETICFGDGQNDIVMFQASDVTIAMKNSHQQLKDIATSICEDIFDNGIYKELKRRNII,not failed
3,MKMANHPRPGDIIQESLDELNVSLREFARAMEIAPSTASRLLTGKAALTPEMAIKLSVVIGSSPQMWLNLQNAWSLAEAEKTVDVSRLRRLVTQSTP,not failed
4,MKMHRDSISLNSYEEMAEYYFSYVDQKPFNAYYERPATLSLLPDVAGKRVLDAGCAAGWYTQWLLDKGAAVTAVDFSAGMIEMTRKRVGERAEIIRADLNEPLDFMAKESCDIVLSSLALHYLKDWTLVMSEFHRILAKGGLLIFSVHHPFMDFTVFQRDNYFLTELLDDEWETQKGKVKVQFYRRPLSQILSAVLEAGFLLEKVLEPMPTEEFKSAQPDAYRRLTYKPQFLFLRARKP,failed
5,MKMKHMKPYTTMKTVLSTLAIALAFGPLHNAQACTRILYETGNQSYISGRSMDWADPSAATALWVFPKGMKRDGTVGDNPIKWSAKYGSIIVSFYDAGTADGMNEKGLVANMLYLKEAKWGDATKAGKPTLTAGAWAQYFLDNYATVEEAVTAMANPPFTIIAPSLPNGDAAALHLSISDVNGDSAIFEYIDGKLVIHHGSQYKVMTNSPTFDQQLALNTYWQQIGGSKFLPGTINAADRFVRASYALSASPKYRDNDLALASVFSQIRAVSVPLGITDPDRPNLAMTLWRTFADHTAKIYYFESAVFPAVSWLDMSKVDLTEGAAPKVVRVERGQPLAGELSAALKPAEPFKWLGAE,failed
6,MKMKILGISFGTKNGNNDTMCKVALKGAKEAGAEVEFIQMSSINIKHCTGCCACVKTLLSGKGSMCVLKDDFEWLLDKMKDADGIVVSDPIFEEGASGLFHTIMDRFGPRADRGNNIIGTKVAEAIGGKIPDSRMLNDKVISFMGIGGSDWGTRVQCEHAMLALIPMWKVIDNAWFPWAKELVMDDTRLVQVHQIGLNIVEAAKDFEKASYQGEEGVCPHCHNRLFYLEPGTKKAICALCGIVGELDTISGKTIFSFPEEQLGHAHDTLPGKFIHGDDIKKMEGHYAEVRKTQEFKERKTSYNFIETLTKEKQAGVSLG,failed
7,MKMKSKTKSCCQYTQWVVLALLTLIFASCKDNDDATGDFDPNKPVVISEFSPKEGGLGTRMLLYGENFGSDISKIKVTIGGQDSKVVGAKGKSLYCVVPAKAYDGDIKLSILNDEGEEIANTEANEKFVYQKKMLVTTFLGTMYDGNTKYDLKDGPFDDCGGFGGAVWLSFDPKNHNHLYLVGEQHPTRLIDFEKEYVSTVYSGLSKVRTICWTHEADSMIITNDQNNNDRPNNYILTRESGFKVITELTKGQNCNGAETHPINGELYFNSWNAGQVFRYDFTTQETTPLFTIQDSGWEFHIQFHPSGNYAYIVVVNQHYILRSDYDWKTKRLTTPYIVCGQQGAKDWVDGVGKKARMHAPRQGTFVKNPAYKGSSDEYDFYFCDRENHCIRILTPQGRVTTFAGRGSNGTSGYNDGDLRQEARFNHPEGIVYDEERECFFIGDRENRRIRKIGYEE,failed
8,MKMSELEKMLKGEHFDGASAEIEALRSQAGRLKLEINQSLDEAERYALQRELFGHLGHKSCVQPPFHCEFGKTIRIGDHTFINMNVVMLDGAPITIGDHVLIGPSTQFYTASHSLDYRRRQAWETICKPIVIEDDVWIGGNVVINQGVTIGARSVVAANSVVNQDVPPDTLVGGTPARILRSLKDPAESMAE,not failed
9,MKNDLFTEIIGQHTAKLLLTEAIERNQIAPAYLFSSEVEGVGKGKIALAFANAILSRGSRSAMAKHLPPPKGDAQGTASAGESKHLDILQIKPTYTENTSQQKSVPAIRVEQMREVIEFLSTSAVEGKQKVVIIYEADMLNPTAANKLLKTLEEPKTGTFILISSYPQKLLPTIKSRCQIIPFQRLTDEEVISVLKDQQIEATEKILAISSGSPGQAIANIKMLASISQEITKELEVPPDDILKALSLSNSISSWNHQTQLWLLTYLQYNWWQKLKSTKLLAKFTQARKQLLHHVTPRSVWDSLLLP,failed
10,MKNEPIYNLLNSINSPDDLRRLEVDQLPEVCDELRQDIIKELSCNPGHFAASLGTVELTVALHYVYNTPYDRIVWDVGHQAYGHKILTGRREAFSTNRKLGGIRPFPSPEESEYDTFTCGHASNSISAALGMAVAAAKKGDDQRHVIAIIGDGSMSGGLAFEGLNNSSTTPNNLLIILNDNDMAIDRSVGGMKQYLFNLTTSNRYNQLRFKASRLLFKLGILNDERRKALIRFGNSLKSMAAQQQNIFEGMNIRYFGPIDGHDIKNLSRVLRDIKDLKGPKILHLHTIKGKGFAPAEKHATEWHAPGKFDPVTGERFVANTEGMPPLFQDVFGNTLVELAEANPRIVGVTPAMPSGCSMNILMSKMPKRAFDVGIAEGHAVTFSGGMAKDGLQPFCNIYSSFMQRAYDNIIHDVAIQNLPVVLCLDRAGLVGEDGPTHHGAFDMAYLRPIPNLTIASPMNEHELRRLMYTAQLPDKGPFVLRYPRGRGVLVDWKCPLEEIPVGKGRKLKDGKDIAVISIGPIGNKARSAIARAESESGRSIAHYDLRFLKPLDEELLHEVGRTFRHIVTIEDGTIQGGMGSAVLEFMADHEYTPTVKRIGIPDKFVQHGTVAELYQLCGMDEDSLTKELLKQCELLPDMSKIKELTN,failed
11,MKNETLHTQEDIIKMLDSLLRPAEPFWNEFYANREKDVPFFENVPDENLVSYIQKKRVSKGKVLELGCGPGRNAIYLANEGFDVTAVDVSIEGINWAKERALAKGVEIEFICDSIFNLEVQNEFDFVYDSGCLHHIPPHRRVNYVDLIKNALKSGGYFGLTCFAAGDLDERNGSEITDWDVYRGWSLQGGLAYSEEKLREIFKGFEVIEIRKMEQIEQPNTMFGESFLWTALFKKNLEHHHHHH,not failed
12,MKNFLETIEDMILIINREGRLLYANTAVPKKLGYPHEELMSMHILTITSAGKMAEGEKILAELFAGKKESLPLSLEKKEGTSIPAKARIWQGKWHNEPCLFAIIKDLSKEERALEHHHHHH,not failed
13,MKNIVPPADIILNMLNEKPGADLDLLDFYKGYIRRASIEPSYSEEGFDKGKHINEDLRQEIEIAFLKGLVSLRHNICKKGSTVLIIVPSKSWFDLEHHHHHH,failed
14,MKNLNYGIIGLGKFGSVVADELIAGGHTVIVADKDEEALKSIQNPPSYAYILDSTNISALKEAGFHDVEVVIVSIGENVEKSILTLMALKDIGVKNIIAKATSNIHGQILSKLGATKVIYPEKESAKRLVKEFLTKDADYEVFDLSANTIRAIKINIDEKLAGNSLKHVAQNMKVISYKKLNSDWEILPDLETTTVYSGDVVILLGTVKELREFEH,failed
15,MKNPVPRIIKTPVIAMYHDDRREELTIEVELSDVKDENITLMMHENSFYIKAFSETVEYLGSFFLDGPVDPEKAVAANNNGMLTIKVPYKEGFTCARFIHVD,failed
16,MKNSEESSSSSEDTNNATDTNTSESQDISVNGPEKVGDVYEIDGGTAKVMAISNKETTVKTGPIQFTVKKVIAAVANEQLPFIDVQIESENTSDEVVRFRPSLAQLATSTGVQIDEPSLLESDRLLDEYVGKVNDSGSIIYVFDNEEDIKDLESIRLRISSPFNEDLKNLGDKLDLKINLEHLEHHHHHH,not failed
17,MKNSNRLIYTDNLEESLEETASLFEHHIKFYTEIIEKDKKVIKTFNKDFKIEHAKEVISKAHLKHSELNAFLIAAPSYGIEAQNALLKILEEPPNNVCFIMFAKSQNHVLATIKSRLIKEDKRQKIPLKPLDLDLSKLDLKDIYAFLKNLDKENFDSRENQRERIESLLESVNRHKIPLNEQELQAFDLAIKANSSYYKLSYNLLPLLLSLLSKKKTP,failed
18,MKNTELEQLINEKLNSAAISDYAPNGLQVEGKETVQKIVTGVTASQALLDEAVRLGADAVIVHHGYFWKGESPVIRGMKRNRLKTLLANDINLYGWHLPLDAHPELGNNAQLAALLGITVMGEIEPLVPWGELTMPVPGLELASWIEARLGRKPLWCGDTGPEVVQRVAWCTGGGQSFIDSAARFGVDAFITGEVSEQTIHSAREQGLHFYAAGHHATERGGIRALSEWLNENTDLDVTFIDIPNPA,not failed
19,MKNVLLLGESGFVGSVVYNSLHCVCKVYTIAPNKKITIDNVFEVANDVFKSIEINNIDVVINCIAMANLDQCENNKLDCELVNTTFVTHIVDYLKDKDIKLVHISSNAVYDGLNAPYSENSLREPINYYGICKSNADYYIESNLNNYAIARPITVYGPRKIEQRDNPVSFIVKKILSGESFDLVDDNIVNMIHVEDLSNAIKKLSLSDLKGVYNLSGDVSECRYDLGIRIAKIMGSDLNKINKVSGSNFKMAAKRPYNTSFDNKKMKSVLNIEPKNIDIAISEILNAKAY,failed
20,MKNYQKMSVAQDARVELHDSLALTGAEVSINHLPAGAGVPFVHSHKQNEEIYGILSGKGFITIDGEKIELQAGDWLRIAPDGKRQISAASDSPIGFLCIQVKAGSLEGYTMTDGVVQLEHHHHHH,not failed
21,MKPFMNNTKQLKRPLLNKQELALFAATILWGITFLVIHIAVRYSGPLFFVGFRFMVASLICGAIFWRSLKGITVYEIFAGMAIGLGMFLGYALQATGLQTIISSQSAFITALYVPIVPILQWIVFKKPPRLACWLGIIFAFIGLILISGKKSGSFDFSKGEILTLLGALAIAGEVILIGIFAHKVDSRRVTIIQLFFSGLFSFFCMPFIGESIPPFSWVWLNIGIGLALMSAIIQLAMNWAQKSISPTRATLIYAGEPVWAGIVGRLAGEHLSPLALLGGALILIGIVVAELQPSQWRKKKNNLKK,failed
22,MKPIRYTIAPAAPEAHLFTVTVTVDAPDPQGQRFSLPAWIPGSYMIREFARNIVRIEAMCGERAVRLAKLDKHTWQAAPCSGPLTVSYDVYAWDLSVRAAHLDPTHGFFNGTSVFLRVEGGEQVRCLVDIQPPAGDAYRGWRVATALREASGRVQGRVGAKRYGFGWYEAADYDELIDHPVEMGTFALVSFEACGAQHDAVFTGRVPNLDLERIARDFKRICEAQIRLFEPHTAAAPFLDSNRRYVFMTMVTTDGYGGLEHRASTALICARNDLPVTGRDETTEGYRTFLGLVSHEYFHTWNVKRIKPAVFVPYALDREVHTPLLWLFEGFTSYYDDLMLVRSGLISEAQYLEMLAKTWNGVLRGSGRLKQSVAESSFDAWTKYYRQDENAPNAIVSYYTKGSLVALALDLTIRTQTGGEHSLDDVMRALWAAGGRDFYAPGHAQRGVTEAELIALMEETTGLRLRTLVRQLAEGRDDPPLPALFKAIGVTATRKPAEAALGLGAKVGAENGFVKLLQVFDGGPAQRAGLSAGDLVVAVDGLRVLSGQLDKSLARHRAGDTVPVHVFRRDELMQLDVTLSADATPQFALALSAEPSPLRSAWLGKRAAARGARPAKSRSAA,failed
23,MKPLRTRFLRWRGAAAGGLLAGALLASPAWAAKQADWWVYVHNDKARDIGALLAAGADPNVRYDNGQPAIMRAVVDNAWEVFDVLAANRRTDLNAENPAGETPLMYLAVAGQTERAQALIARGAQVNRLGWTPLHYAASKGRLETARMLLGKQALVNAPSPDGTTPLMMAAYSGDRRMVQLLLDAGADITTRNLKGMSAADWAAFGKSEALARELKPMIARAEAERQARHGAVATSKLAPAAETPPTAQPAAASAAASQPGEGRSLSGVSGVRLNSYD,failed
